Patent US20260232827A1 (Zymeworks, published 2026)

T1: human NaPi2c (human, UniProt Q8N130 1-599)
T1 construct: whole, on cells; also called Hu NaPi2c; SLC34A3
T1 sequence (looked up): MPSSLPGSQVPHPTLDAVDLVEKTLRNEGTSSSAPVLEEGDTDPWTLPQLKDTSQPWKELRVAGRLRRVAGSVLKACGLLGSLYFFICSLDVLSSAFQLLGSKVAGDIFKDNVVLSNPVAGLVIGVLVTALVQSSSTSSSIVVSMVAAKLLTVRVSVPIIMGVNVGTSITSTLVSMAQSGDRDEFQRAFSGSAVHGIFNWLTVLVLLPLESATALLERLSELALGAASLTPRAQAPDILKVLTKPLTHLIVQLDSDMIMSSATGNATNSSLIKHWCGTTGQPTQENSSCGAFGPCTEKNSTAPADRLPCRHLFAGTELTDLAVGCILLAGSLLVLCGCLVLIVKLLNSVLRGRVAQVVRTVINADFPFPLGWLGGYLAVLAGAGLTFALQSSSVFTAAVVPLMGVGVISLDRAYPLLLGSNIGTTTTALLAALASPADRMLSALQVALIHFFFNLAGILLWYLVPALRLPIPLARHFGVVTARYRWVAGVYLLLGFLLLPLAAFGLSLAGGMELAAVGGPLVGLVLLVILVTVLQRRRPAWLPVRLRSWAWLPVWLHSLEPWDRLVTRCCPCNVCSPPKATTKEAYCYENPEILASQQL

T2: human sodium-dependent phosphate transporter 2B (NaPi2b) (human, UniProt O95436 1-690)
T2 construct: UniProt ID is given as 095436 [sic]; also called hNaPi2b; Hu NaPi2b
T2 sequence: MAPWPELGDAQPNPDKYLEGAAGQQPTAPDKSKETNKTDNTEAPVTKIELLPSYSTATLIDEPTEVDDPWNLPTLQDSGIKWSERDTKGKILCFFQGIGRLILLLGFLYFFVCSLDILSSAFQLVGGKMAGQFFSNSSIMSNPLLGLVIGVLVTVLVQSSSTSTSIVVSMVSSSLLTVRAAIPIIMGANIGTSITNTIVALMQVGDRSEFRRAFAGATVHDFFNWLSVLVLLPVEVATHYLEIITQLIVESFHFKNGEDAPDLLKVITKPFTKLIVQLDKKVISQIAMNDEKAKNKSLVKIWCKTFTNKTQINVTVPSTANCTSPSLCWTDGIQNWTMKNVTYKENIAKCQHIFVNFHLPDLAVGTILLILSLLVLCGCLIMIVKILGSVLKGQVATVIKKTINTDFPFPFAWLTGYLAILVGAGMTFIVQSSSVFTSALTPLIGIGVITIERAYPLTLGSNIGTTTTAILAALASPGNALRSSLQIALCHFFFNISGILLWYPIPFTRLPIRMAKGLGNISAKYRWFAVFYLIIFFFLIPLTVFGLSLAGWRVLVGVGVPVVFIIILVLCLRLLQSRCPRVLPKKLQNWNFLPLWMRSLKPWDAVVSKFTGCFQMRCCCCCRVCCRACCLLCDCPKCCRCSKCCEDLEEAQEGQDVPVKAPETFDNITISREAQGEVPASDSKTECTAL

T3: Construct 7 (human NaPi2b del 317-326) (human, UniProt O95436 1-690)
T3 construct: also called CL_#29921
T3 sequence: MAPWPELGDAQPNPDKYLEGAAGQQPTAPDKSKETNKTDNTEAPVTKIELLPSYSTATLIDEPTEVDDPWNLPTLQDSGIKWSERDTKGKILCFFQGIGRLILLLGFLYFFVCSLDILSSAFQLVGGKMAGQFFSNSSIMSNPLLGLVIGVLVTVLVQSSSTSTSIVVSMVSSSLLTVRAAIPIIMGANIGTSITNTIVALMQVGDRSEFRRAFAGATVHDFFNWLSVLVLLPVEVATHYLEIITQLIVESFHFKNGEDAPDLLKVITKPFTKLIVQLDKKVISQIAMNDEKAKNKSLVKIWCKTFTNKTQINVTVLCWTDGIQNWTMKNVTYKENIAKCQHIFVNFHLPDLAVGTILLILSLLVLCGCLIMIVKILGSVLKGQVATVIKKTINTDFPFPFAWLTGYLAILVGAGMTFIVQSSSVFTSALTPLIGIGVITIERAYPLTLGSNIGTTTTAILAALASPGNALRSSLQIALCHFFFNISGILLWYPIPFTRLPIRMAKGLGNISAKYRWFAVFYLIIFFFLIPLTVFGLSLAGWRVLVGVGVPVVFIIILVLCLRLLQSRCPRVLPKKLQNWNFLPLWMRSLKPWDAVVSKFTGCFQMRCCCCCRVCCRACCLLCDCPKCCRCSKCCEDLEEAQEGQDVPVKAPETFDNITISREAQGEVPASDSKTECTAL


What was measured:
human NaPi2c = target: T1, human NaPi2c; experiment: flow cytometry on HEK293-6e cells transfected with human NaPi2c, 24 h at 4 C, anti-human IgG Fc AF647
[1] = target: T2, human sodium-dependent phosphate …; experiment: flow cytometry on IGROV-1 cells (endogenous NaPi2b), 24 h at 4 C, anti-human IgG Fc AF647
[2] = target: T3, Construct 7 (human NaPi2b del 317-326); experiment: flow cytometry, transfected HEK293-6e cells, antibody 20 nM
[3] = target: T4, Construct 3 (chimeric human NaPi2b, swap in NaPi2c in 304-321) (human); experiment: as above
T4 construct: also called CL_#29916

[4] = target: T5, Construct 4 (chimeric human NaPi2b, swap in NaPi2c in 341-358) (human); experiment: as above
T5 construct: also called CL_#13435

[5] = target: T6, Construct 2 (chimeric human NaPi2b, swap in NaPi2c in 280-301) (human); experiment: flow cytometry, transfected HEK293-6e cells, antibody 2 nM;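 further: transfected cells exposed to test antibody 24 h at 4 °C to block internalization, at least 1,000 events per well, background is mean MFI of unstained cells lacking primary antibody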
T6 construct: also called CL_#29915

[6] = target: T4, Construct 3 (chimeric human NaPi2b, …); experiment: as above
[7] = target: T7, Construct 5 (chimeric human NaPi2b, swap in NaPi2a in 304-348) (human); experiment: as above
T7 construct: also called CL_#13436

[8] = target: T8, Construct 1 (chimeric human NaPi2b, swap in NaPi2c in 239-259) (human); experiment: as above
T8 construct: also called CL_#29914

Binder | binding result (human NaPi2c) | EC50 (read off the curve) [1] [nM] | other results
v22277 (palivizumab, anti-RSV negative control, heterodimeric Fc) (antibody, human IgG1, kappa, also called neg control) heavy 1: GQVTLRESGPALVKPTQTLTLTCTFSGFSLSTSGMSVGWIRQPPGKALEWLADIWWDDKKDYNPSLKSRLTISKDTSKNQVVLKVTNMDPADTATYYCARSMITNWYFDVWGAGTTVTVSSASTKGPSVFPLAPSSKSTSGGTAALGCLVKDYFPEPVTVSWNSGALTSGVHTFPAVLQSSGLYSLSSVVTVPSSSLGTQTYICNVNHKPSNTKVDKKVEPKSCDKTHTCPPCPAPELLGGPSVFLFPPKPKDTLMISRTPEVTCVVVDVSHEDPEVKFNWYVDGVEVHNAKTKPREEQYNSTYRVVSVLTVLHQDWLNGKEYKCKVSNKALPAPIEKTISKAKGQPREPQVYVYPPSRDELTKNQVSLTCLVKGFYPSDIAVEWESNGQPENNYKTTPPVLDSDGSFALVSKLTVDKSRWQQGNVFSCSVMHEALHNHYTQKSLSLSPG heavy 2: not shown light: GDIQMTQSPSTLSASVGDRVTITCKSQLSVGYMHWYQQKPGKAPKLLIYDTSKLASGVPSRFSGSGSGTEFTLTISSLQPDDFATYYCFQGSGYPFTFGGGTKLEIKRTVAAPSVFIFPPSDEQLKSGTASVVCLLNNFYPREAKVQWKVDNALQSGNSQESVTEQDSKDSTYSLSSTLTLSKADYEKHKVYACEVTHQGLSSPVTKSFNRGEC | no binding (tested: 200 nM) | – | –
v18993 (lifastuzumab), reference anti-NaPi2b antibody (antibody, human IgG1, kappa) heavy 1: GEVQLVESGGGLVQPGGSLRLSCAASGFSFSDFAMSWVRQAPGKGLEWVATIGRVAFHTYYPDSMKGRFTISRDNSKNTLYLQMNSLRAEDTAVYYCARHRGFDVGHFDFWGQGTLVTVSSASTKGPSVFPLAPSSKSTSGGTAALGCLVKDYFPEPVTVSWNSGALTSGVHTFPAVLQSSGLYSLSSVVTVPSSSLGTQTYICNVNHKPSNTKVDKKVEPKSCDKTHTCPPCPAPELLGGPSVFLFPPKPKDTLMISRTPEVTCVVVDVSHEDPEVKFNWYVDGVEVHNAKTKPREEQYNSTYRVVSVLTVLHQDWLNGKEYKCKVSNKALPAPIEKTISKAKGQPREPQVYVYPPSRDELTKNQVSLTCLVKGFYPSDIAVEWESNGQPENNYKTTPPVLDSDGSFALVSKLTVDKSRWQQGNVFSCSVMHEALHNHYTQKSLSLSPG heavy 2: not shown light: GDIQMTQSPSSLSASVGDRVTITCRSSETLVHSSGNTYLEWYQQKPGKAPKLLIYRVSNRFSGVPSRFSGSGSGTDFTLTISSLQPEDFATYYCFQGSFNPLTFGQGTKVEIKRTVAAPSVFIFPPSDEQLKSGTASVVCLLNNFYPREAKVQWKVDNALQSGNSQESVTEQDSKDSTYSLSSTLTLSKADYEKHKVYACEVTHQGLSSPVTKSFNRGEC | no binding (tested: 200 nM) | ~3 | –
v38591 (humanized anti-NaPi2b antibody, wild-type Fc) (antibody, human IgG1, kappa, also called v38591 Wild-type; H1L2) heavy: not shown light: DVQMTQSPSSLSASVGDRVTITCRASQDVYSYLNWYQQKPGKAVKLLIYYTSRLQSGVPSRFSGSGSGTDYTLTISSLQPEDFATYYCQQYNIFPWTFGQGTKLEIKRTVAAPSVFIFPPSDEQLKSGTASVVCLLNNFYPREAKVQWKVDNALQSGNSQESVTEQDSKDSTYSLSSTLTLSKADYEKHKVYACEVTHQGLSSPVTKSFNRGEC | no binding (tested: 200 nM) | ~2 | –
v18992 (MX35), reference anti-NaPi2b antibody (antibody, human IgG1, kappa) heavy 1: GQVQLVQSGAEVVKPGASVKMSCKASGYTFTGYNIHWVKQAPGQGLEWIGAIYPGNGDTSYKQKFRGRATLTADTSTSTVYMELSSLRSEDSAVYYCARGETARATFAYWGQGTLVTVSSASTKGPSVFPLAPSSKSTSGGTAALGCLVKDYFPEPVTVSWNSGALTSGVHTFPAVLQSSGLYSLSSVVTVPSSSLGTQTYICNVNHKPSNTKVDKKVEPKSCDKTHTCPPCPAPELLGGPSVFLFPPKPKDTLMISRTPEVTCVVVDVSHEDPEVKFNWYVDGVEVHNAKTKPREEQYNSTYRVVSVLTVLHQDWLNGKEYKCKVSNKALPAPIEKTISKAKGQPREPQVYVYPPSRDELTKNQVSLTCLVKGFYPSDIAVEWESNGQPENNYKTTPPVLDSDGSFALVSKLTVDKSRWQQGNVFSCSVMHEALHNHYTQKSLSLSPG heavy 2: not shown light: GDIQMTQSPSSLSASVGDRVTITCSASQDIGNFLNWYQQKPGKTVKVLIYYTSSLYSGVPSRFSGSGSGTDYTLTISSLQPEDFATYYCQQYSKLPLTFGQGTKLELKRTVAAPSVFIFPPSDEQLKSGTASVVCLLNNFYPREAKVQWKVDNALQSGNSQESVTEQDSKDSTYSLSSTLTLSKADYEKHKVYACEVTHQGLSSPVTKSFNRGEC | no binding (tested: 200 nM) | ~2 | –
v38591 (humanized anti-NaPi2b antibody, H1L2, wild-type Fc, heavy chains with C-terminal lysine) (antibody, human IgG1, kappa, Full-size human IgG1/kappa antibody; also called v38591 (wild-type Fc)) heavy: not shown light: DVQMTQSPSSLSASVGDRVTITCRASQDVYSYLNWYQQKPGKAVKLLIYYTSRLQSGVPSRFSGSGSGTDYTLTISSLQPEDFATYYCQQYNIFPWTFGQGTKLEIKRTVAAPSVFIFPPSDEQLKSGTASVVCLLNNFYPREAKVQWKVDNALQSGNSQESVTEQDSKDSTYSLSSTLTLSKADYEKHKVYACEVTHQGLSSPVTKSFNRGEC | – | – | Background-Subtracted AF647 Mean Fluorescence Intensity [2]: 981 MFI; Background-Subtracted AF647 Mean Fluorescence Intensity [3]: 1120 MFI; Background-Subtracted AF647 Mean Fluorescence Intensity [4]: 993 MFI; Background-Subtracted AF647 Mean Fluorescence Intensity [5]: 832 MFI; Background-Subtracted AF647 Mean Fluorescence Intensity [6]: 743 MFI; Background-Subtracted AF647 Mean Fluorescence Intensity [7]: -12 MFI; Background-Subtracted AF647 Mean Fluorescence Intensity [8]: 1550 MFI
